These results are taken from patent US20180282430A1 (Bayer, published 2018).

T1: Human TFPI (tissue factor pathway inhibitor) (human, UniProt P10646 29-304, limits assumed)
T1 construct: Coated at 1 ug/ml on Maxisorb plates for the ELISA; For the Biacore work the human TFPI came from American Diagnostica
T1 sequence (looked up): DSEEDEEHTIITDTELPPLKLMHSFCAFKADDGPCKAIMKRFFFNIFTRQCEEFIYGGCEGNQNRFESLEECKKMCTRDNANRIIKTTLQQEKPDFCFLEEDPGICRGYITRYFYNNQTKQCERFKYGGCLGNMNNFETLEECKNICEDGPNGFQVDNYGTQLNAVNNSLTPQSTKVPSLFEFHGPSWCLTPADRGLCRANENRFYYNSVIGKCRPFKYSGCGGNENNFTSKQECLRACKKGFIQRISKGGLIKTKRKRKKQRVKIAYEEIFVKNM

B1: 2A8-g200 Fab (wild type) (Fab, V domains shown)
VH: EVQLVESGGGLVQPGGSLRLSCAASGFTFSSYGMDWVRQAPGKGLEWVSSIRGSRGSTYYADSVKGRFTISRDNSKNTLYLQMNSLRAEDTAVYYCARLYRYWFDYWGQGTLVTVSS
VL: SYELTQPPSVSVSPGQTARITCSGDNLPKYYAHWYQQKPGQAPVVVIFYDVNRPSGIPERFSGSNSGNTATLTISGTQAMDEADYYCQAWWSSTPVFGGGTKLTVLG
notes: Fab format, expressed in E. coli; also called wt gA200Fab; wild type 2A8-g200 Fab
B2: 2A8-g200 Fab VL-Y49H (Fab, V domains shown)
VH: B1 VH
VL: B1 VL with Y49H
notes: Member of the 2A8-g200 Fab histidine scanning library
B3: 2A8-g200 Fab VH-Y100H (Fab, V domains shown)
VH: B1 VH with Y100H
VL: B1 VL
notes: as for B2
B4: 2A8-g200 Fab VH-Y102H (Fab, V domains shown)
VH: B1 VH with Y102H
VL: B1 VL
notes: as for B2
B5: 2A8-g200 Fab VL-L27H (Fab, V domains shown)
VH: B1 VH
VL: B1 VL with L27H
notes: as for B2
B6: 2A8-g200 Fab VL-F48H (Fab, V domains shown)
VH: B1 VH
VL: B1 VL with F48H
notes: as for B2
B7: 2A8-g200 Fab VL-V45H (Fab, V domains shown)
VH: B1 VH
VL: B1 VL with V45H
notes: as for B2
B8: 2A8-g200 Fab VL-Y31H (Fab, V domains shown)
VH: B1 VH
VL: B1 VL with Y31H
notes: as for B2
B9: 2A8-g200 Fab VL-W90H (Fab, V domains shown)
VH: B1 VH
VL: B1 VL with W90H
notes: as for B2
B10: 2A8-g200 Fab VH-Y32H (Fab, V domains shown)
VH: B1 VH with Y32H
VL: B1 VL
notes: as for B2
B11: 2A8-g200 Fab VH-S50H (Fab, V domains shown)
VH: B1 VH with S50H
VL: B1 VL

Changes are numbered by the printed parent chain. In names and notes the source's numbering stands.

For the first assay, the target named is T1, Human TFPI (tissue factor pathway …). In words: ELISA on plate-coated human TFPI; Fab expression media bound, then 1 h at 37 C in 100 mM citrate pH 6.0; amplex red. The procedure: (§1) Human TFPI, 1 μg/ml, was used to coat Maxisorb™ microtiter plates. Expression media, 100 μl, from each member of the His scan library, was added to two wells on the plate, in a pair wise fashion. The plate was incubated on a shaker at room temperature for 1 hr. The plate was washed 3× with PBST. PBS (pH 7.0) was added to one well of the pair, 100 mM pH6.0 Citrate buffer was added to the second well of the same pair. The plate was incubated at 37° C. with shaking for one hr. The plate was washed 3× with PBST and developed using amplex red. A pH 7.0/pH 6.0 ratio was established to rank the sensitive muteins. The ratio for wild type 2A8-g200 Fab was 1.0.
B1: the “TFPI ELISA signal, pH 6.0” value was determined as 5350.
B2: the “TFPI ELISA signal, pH 6.0” value came to 2040.
Consider B3, for which the “TFPI ELISA signal, pH 6.0” value was determined as 1430.
The same measure, in the same setting: the figure for B4 is 1080.
In the case of B5, the “TFPI ELISA signal, pH 6.0” value was 2640.
Same read-out and setting: the figure for B6 is 1550; for B7 it is 1770.
Consider B8, for which the “TFPI ELISA signal, pH 6.0” value was 133.
On to B9, for which the “TFPI ELISA signal, pH 6.0” value worked out at 1510.
Take B10: the “TFPI ELISA signal, pH 6.0” value is 2580.
Regarding B11, the “TFPI ELISA signal, pH 6.0” value was 1640.

Another assay has the same target. In words: SPR (Biacore T200): human TFPI amine-coupled on a CM4 or CM5 chip, Fab variant injected, dissociation followed in pH 7.4 or pH 6.0 buffer. The procedure:
Purified 2A8-g200 variants in Fab format (referred to as wt gA200Fab in Table 1) were tested using surface plasmon resonance (Biacore). Surface plasmon resonance (Biacore T200) was used to measure the dissociation rate of the antibodies. […] Purified 2A8-g200 variants were injected, following by 40-minute dissociation either at pH7.4 or pH6.0 buffer. The antibodies were diluted in HBS-P buffer at different concentrations and the flow rate was set to 50 μl/min. After each round of antibody injection, the chip was regenerated by injecting 90 μl of pH 1.5 glycine. The data set was evaluated using BIAevaluation Software.
The dissociation constant (kd) for each 2A8-g200 variant antibody was determined by using a model with the following equation: […]
where R is the response at time t, R₀ is the response at time t_{0.}—the start of dissociation, offset allows for a residual response at the end of complete dissociation. A ratio of kd at pH 6.0 to kd at pH 7.4 was calculated for each 2A8-g200 variant. A mutation with observed ratio of […] was considered as pH-sensitive mutation and could be used for construction of IgG variants of 2A8-g200.
With B5, the “fold (x) printed after the variant's name; the sheet does not name it, paragraph 57 speaks of the ratio of kd at pH 6.0 to kd at pH 7.4” value is 2.7 x.
Same read-out and setting: the figure for B8 is 3.2 x.

The target is the same in a further assay. In words: pH 6.0 TFPI dissociation ELISA; ratio of the signals at pH 7.0 and pH 6.0. The procedure: as §1
Consider B1, for which the “Ratio pH 7.0/pH 6.0” value is 0.98.
For B2, the “Ratio pH 7.0/pH 6.0” value was 1.3.
On the same count and under the same terms, as for B3, the figure is 1.78.
On the same count and under the same terms, as for B4, the figure is 3.07; as for B5, 1.3.
B6: the “Ratio pH 7.0/pH 6.0” value was found to be 1.33.
With B7, the “Ratio pH 7.0/pH 6.0” value was 1.24.
B8: the “Ratio pH 7.0/pH 6.0” value came to 6.84.
Consider B9, for which the “Ratio pH 7.0/pH 6.0” value turned out to be 1.21.
On the same count and under the same terms, as for B10, the figure is 1.38; as for B11, 1.32.

The next assay has the same target. In words: ELISA on plate-coated human TFPI; Fab expression media bound, then 1 h at 37 C in PBS pH 7.0; amplex red. The procedure:
as §1
With B1, the “TFPI ELISA signal, pH 7.0” value came to 5250.
Take B2: the “TFPI ELISA signal, pH 7.0” value is 2660.
On to B3, for which the “TFPI ELISA signal, pH 7.0” value turned out to be 2540.
The same measure, in the same setting: the figure for B4 is 3310.
B5: the “TFPI ELISA signal, pH 7.0” value is 3420.
As to B6, the “TFPI ELISA signal, pH 7.0” value amounted to 2070.
On to B7, for which the “TFPI ELISA signal, pH 7.0” value turned out to be 2200.
In the case of B8, the “TFPI ELISA signal, pH 7.0” value amounted to 913.
For B9, the “TFPI ELISA signal, pH 7.0” value turned out to be 1830.
Turning to B10, the “TFPI ELISA signal, pH 7.0” value was found to be 3560.
For the molecule B11, the “TFPI ELISA signal, pH 7.0” value was found to be 2160.
